Laboratory results taken from US8691536B2, “Pectin lyase, pectin lyase polynucleotide, enzyme preparation, and method for producing single cells of plant tissue” (Bio-I Co., Ltd., priority 2009, dated 2014).

What was measured:
[1] = pH stability of pectin lyase; type: physicochemical; details: 24 hours at 4° C., activity then measured at pH 4.5, 25° C.
Experimental: (§1) It should be noted that a 20 mM phosphate buffer was used for the pH 6.0-7.5 enzymatic reaction solution, and a 50 mM Tris-HCl buffer was used for the pH 7.5-9.5 enzymatic reaction solution. In cases where a McIlvaine buffer was used in a pH range of 3-6, the pectin lyase activity was measured in the same manner. Moreover, in order to determine the pH stability, the pH of enzyme solutions containing purified enzymes was adjusted to 3.0, 4.0, 5.0, 6.0, 7.0, 8.0, 9.0 and 10.0, using either HCl or NaOH. After allowing these enzyme solutions to stand for 24 hours at 4° C., the pectin lyase activity was measured at 25° C. using a 50 mM acetate buffer (pH 4.5).
The pH stability was evaluated using the formula (activity after standing/activity before standing)×100. As a result, the specific activity and the pH stability of pectin lyase at various pH levels are represented in the graph in FIG. 1, where 1.0 is pectin lyase at pH 4.5. The optimal pH for pectin lyase activity according to the present invention was 4.5 in the acetate buffer, and 4.8 in the McIlvaine buffer, and was thus found to be stable in a pH range of 3-6.

[2] = Test to determine the maximum temperature of pectin lyase / heat deactivation; type: physicochemical; details: 15 minutes at 121° C.
[3] = Effects of metallic ions on pectin lyase activity; type: biochemical; details: Ca^2+ 1 mM, acetate buffer pH 4.5, 25° C.
Experimental: Tests were conducted on the effects of metallic ions (Ca^2+, Ba^2+, Co^2+, Cu^2+, Mg^2+, Mn^2+, Zn^2+, and Fe^2+) of pectin lyase having maceration activity produced from the strain Aspergillus niger NBRC31125 on pectin lyase activity.
The test method involved the use of chlorides of various metals, and adjusting their final concentration in the enzymatic reaction solution to 1 mM, and calculating the percentage of change in activity depending on the presence or absence of metallic ions. The enzymatic reaction solution used a 50 mM acetate buffer and a pH of 4.5, and measurements were taken at 10-minute intervals at 25° C.

[4] = Pectin lyase activity (absorbance at 235 nm, acetate buffer); type: biochemical
Experimental: An example of a method for measuring pectin lyase activity is to measure over time the absorbance of the maximum absorption wavelength at 235 nm by unsaturated polygalacturonid formed as a result the substrate being degraded by enzymatic action. In the alternative, other publicly-known methods may be used.
First, 50 μL of a solution of 2 wt. % of pectin (SIGMA/P9436, derived from citrus fruit) adjusted to pH 4.5 using NaOH or HCl, and 50 μL of enzyme solution were prepared. The 50 μL of wt. 2% pectin solution was mixed with 400 μL of 50 mM acetate buffer (pH 4.5) to prepare in advance a total of 450 μL, to which 50 μL of enzyme solution is to be added for a total of 500 μL as an enzymatic reaction solution to be used when measuring activity. In order to ensure uniform diffusion of the substrate in the reaction solution and to achieve stabilization, NaCl is added to obtain a final concentration of 0.1 M.
The enzyme solution and the enzymatic reaction solution without the enzyme solution are each incubated for 10 minutes at 25° C., after which 50 μL of the enzyme solution is mixed with 450 μL of the enzymatic reaction solution without the enzyme solution. An enzymatic reaction is then initiated, and measurements of absorbance at 235 nm are taken continuously for 10 minutes at 25° C. using a spectrometer. The amount of resulting unsaturated polygalacturonid is computed using a molecular absorbance coefficient of 5200 (M^−1cm^−1) (Paloma Sanchez-Torres, Jeap Visser, and Jacques A. E. Benen, Biochem. J., 370, 331-337, Feb. 15, 2003), and 1 unit (1 U) of pectin lyase activity was set at the amount of unsaturated polygalacturonid formed per 1 μmmol of unsaturated digalacturonid per minute.
In order to determine the optimal pH for pectin lyase activity of pectin lyase having maceration activity produced from the strain Aspergillus niger NBRC31125, the enzyme activity at various pH levels was measured using the above-described enzymatic reaction solution with modified pH (the enzymatic reaction solution described in [C] 2. (1) above).
as §1

[5] = tested on: sweet potato discs; assay: Maceration activity, sweet potato disc decay at 45° C. in McIlvaine buffer; type: biochemical; details: for specific maceration activity relative to N400 strain PLA: per 1 mg of protein, at optimal pH
Experimental: The maceration activity was measured as described below. First, sweet potato discs were prepared in the same manner as described above. Then, 50 μL of enzyme solution and 450 μL of buffer were placed in a test tube and mixed, forming a test solution held at a constant temperature of 45° C., then 1 of the above sweet potato discs were placed therein, and a reaction was initiated. A McIlvaine buffer was used as the buffer, and the ionic strength of the test solution (total of 500 μL) was adjusted in advance to I=0.3 or 0.5, using KCl. After the reaction started, stirring was carried out in the manner described above, and the degree of decay was visually observed. Three specimens each were prepared under the various conditions, and reactions of specimens under identical conditions were initiated simultaneously. The strength of the maceration activity under those conditions was expressed by the reciprocal of the time needed for any 2 of the sweet potato discs of the 3 specimens under identical conditions (total of 3) to almost uniformly decay.

[6] = tested on: sweet potato discs; assay: Maceration activity, sweet potato disc decay at 30° C.; type: biochemical
Source text: Maceration activity can be measured, for example, by immersing a sweet potato disc in the enzyme solution, and measuring the time elapsed until the sweet potato disc uniformly decays in the enzyme solution as a result of insoluble pectin being degraded by enzymatic action. In the alternative, other publicly-known methods may be used.
A column 6 mm in diameter is removed from the center of a sweet potato using a cork borer. After using a knife to cut sweet potato discs about 0.3 mm thick, the discs are immersed for 60 seconds in 70% ethanol and then rinsed with distilled water. Into a test tube are placed 300 μL of enzyme solution with pH adjusted to 3.5 using HCl, and 200 μL of 50 mM acetate buffer (pH 3.5), and after these are mixed, a constant temperature is set at 30° C., and 3 of the above sweet potato discs are placed therein, and a reaction is initiated. Every 15 minutes after the reaction starts, agitation is carried out for 10 seconds using a test tube mixer, and the degree of decay is visually observed. The strength of the maceration activity is expressed by the reciprocal of the time needed for 2 of the 3 sweet potato discs to almost uniformly decay (Reference literature: Toshihiko Suganuma, Tetsuro Fukumoto, Youko Ikemizu, Katsuyuki Nakama, Shigeo Fujimoto, and Tomonori Nagahama, Bulletin of the Faculty of Agriculture, Kagoshima University, 37, 89-98, Mar. 16, 1987).
A column 6 mm in diameter was removed from the center of a sweet potato (about 500 g) using a cork borer. After using a knife to cut sweet potato discs about 0.3 mm thick, the discs were immersed for 60 seconds in 70% ethanol and then rinsed with distilled water. Into a test tube were placed 300 μL of purified enzyme solution (1.30 μg/mL) and 200 μL of a buffer, and after these were mixed, a constant temperature was set at 30° C., and 3 of the above sweet potato discs were placed therein, and a reaction was initiated.
The buffers were 50 mM acetate buffers with pH 3.0, 3.5, 4.0, 4.5, 5.0, and 6.0, a 50 mM HEPES buffer with pH 7.0, and 50 mM Tris-HCl buffers with pH 8.0 and 9.0. After starting the reaction, stirring was carried out for 10 seconds with a test tube mixer every 15 minutes, and the degree of decay was visually observed. The strength of the maceration activity was expressed by the reciprocal of the time needed for 2 of the 3 sweet potato discs to almost uniformly decay.
In order to evaluate the strength of the maceration activity of the pectin lyase of the present invention, in a Comparative Example, two commercially available enzyme preparations, Macerozyme R10 and Pectolyase Y-23 were dissolved in purified water so that the amount of protein in the respective enzyme solutions was 1.30 μg/ml, and these were subjected to the test described above.

[7] = Pectin lyase activity with HM pectin in McIlvaine buffer; type: biochemical
Experimental: In order to determine the kM value of the isolated and purified pectin lyase having maceration activity (SIGMA/P9561, derived from citrus fruit, degree of esterification <90%), a McIlvaine buffer (0.1 M citric acid, 0.2 M phosphoric acid) adjusted to pH 4.8 was used in measuring the enzyme activity when the final concentration of pectin was changed.
In addition, under conditions of 30° C., and within a pH range of 3.0-7.0, a McIlvaine buffer was used to measure the pectin lyase activity when the ionic strength of the various buffers was adjusted to 0.5 using KCl.
The pectin lyase activity was measured as described below. First, a McIlvaine buffer was used in the enzymatic reaction solution, and an HM pectin substrate (SIGMA/P9561, derived from citrus fruit, degree of esterification <90%) was used to obtain a final concentration of 3 mg/mL. The ionic strength of the enzymatic reaction solution was adjusted in advance to I=0.3 or 0.5, using KCl, and the enzyme solution was 50 μL, and the total amount of the enzymatic reaction solution was 500 μL. Measurements were carried out in the same manner as in [C] 2. (2) (Paloma Sanchez-Tones, Jaap Visser, and Jacques A. E. Benen, Biochem. J., 370, 331-337, Feb. 15, 2003), except that the temperature was 30° C.

[8] = McIlvaine buffer, I=0.3, 45° C.
[9] = McIlvaine buffer pH 4.8, Lineweaver-Burk plot

B1: pectin lyase of the present invention: Pectin lyase with maceration activity purified from Aspergillus niger NBRC31125; SEQ ID NO: 2; PLA mutant differing in 9 amino acids from N400 PLA (protein, listed as Aspergillus sp.)
chain: VGVSGSAEGFAEGVTGGGSATPVYPDTIDELVSYLGDDEARVIVLTKTFDFTDSEGTTTGTGCAPWGTASACQVAIDQDDWCENYEPDAPSVSVEYYNAGTLGITVTSNKSLIGEGSSGAIKGKGLRIVSGAENIIIQNIAVTDINAKYVWGGDAITLDDCDLVWIDHVTTARIGRQHYVLGTSADNRVSLTNNYIDGVSDYSATCDGYHYWAIYLDGDADLVTMKGNYIYHTSGRSPKVQDNTLLHAVNNYWYDISGHAFEIGEGGYVLAEGNVFQNVDTVLETYEGEAFTVPSTTAGEVCSTYLGRDCVINGFGSSGTFSEDSTSFLSDFEGKNIASASAYTSVASSVVANAGQGNL
[1]
  pH range in which stable: 3-6
[2]
  deactivation by boiling treatment: completely deactivated
[3]
  Activity (%) vs. non-addition of ions: 120%
[4]; 50 mM acetate buffer pH 4.5, 25° C.
  pectin lyase activity: 54.7 U/mg
[4]; McIlvaine buffer
  optimal pH for pectin lyase activity: 4.8
[4]; acetate buffer
  optimal pH for pectin lyase activity: 4.5
[4]; purified vs crude enzyme solution
  pectin lyase activity relative to crude enzyme solution: 61 times
[5]; [8]
  optimal pH of maceration activity: 4.0
  specific maceration activity per 1 mg: 7400 h⁻¹ mg⁻¹
[5]; McIlvaine buffer, I=0.5, 45° C.
  optimal pH of maceration activity: 5.0
[5]; maceration activity/pectin lyase activity of 1 mg of enzyme
  ratio of the maceration activity to the pectin lyase activity: 72.5
[5]
  specific maceration activity relative to N400 strain PLA: about 3 times
[5]; listed as protein of the present invention
  specific maceration activity relative to N400 strain PLA: 3 times
[5]; listed as this pectin lyase
  specific maceration activity relative to N400 strain PLA: about 3 times
[6]; 30° C., enzyme solution 1.30 μg/mL protein, buffers pH 3.0-9.0
  optimal pH for maceration activity: ~3.5
[6]; at optimal pH, 30° C.
  maceration activity per 390 ng of protein: 0.15 h⁻¹
[6]; pH 3.0
  specific maceration activity at pH 3.0 relative to Macerozyme R10: 27.7 times
  specific maceration activity at pH 3.0 relative to Pectolyase Y-23: 15.6 times
[6]; pH 3.0, 0.5 mL enzyme solution (500 ng purified pectin lyase; 2% Macerozyme A; 0.16% Pectolyase Y-23)
  maceration activity of enzyme solution used for pectin lysate: 0.18 h⁻¹
[6]; pH 5.0 or lower
  maceration activity: maceration activity was observed
[6]; pH 6.0, 7.0, 8.0, and 9.0
  decay of sweet potato discs: no decay occurred at all
[7]; 30° C., McIlvaine buffer pH 3.0-7.0, ionic strength 0.5 with KCl (FIG. 2)
  optimal pH for pectin lyase activity: 4.8
[7]; 30° C., McIlvaine buffer, I=0.5, at optimal pH
  specific pectin lyase activity: 102 U/mg
[7]; [9]
  Km value: 5.4 mg/mL
  Vmax value: 140 U/mg
[7]; McIlvaine buffer, I=0.3, 30° C.
  optimal pH of pectin lyase activity: 4.0
[7]; McIlvaine buffer, I=0.5, 30° C.
  optimal pH of pectin lyase activity: 5.0
